In article PMC8776730 (Nature Communications, 2022):

How the values were obtained:
MIA PaCa-2 cells = test: Cytotoxicity, CCK-8 assay; type: cell-based; conditions: CCK-8, 24 h, at high concentration of 300 μM
Experimental: The cytotoxicity of M1 and M2 was evaluated using CCK-8 assay in MIA PaCa-2 cells. Cells were seeded into 96-well plates at a density of 5 × 10^4 cells per well and placed in an incubator for 14 h. Subsequently, the sample was diluted into a series of different concentrations (0, 50, 100, 150, 200, 250, 300, and 350 μM) and incubated with cells for 24 h. After that, 10 μL of CCK-8 solution was added to each well and incubated for 2 h. The absorbance of blank wells (Ab), sample wells (As) and control wells (Ac) were measured with a microplate reader at a test wavelength of 450 nm and a reference wavelength of 690 nm. The cell viability rate (%) is equal to (As -Ab) / (Ac -Ab) ×100%. All experiments were repeated in triplicate.
Supplementary Fig. 21∣ Cellviability assay of Miapaca-2 cells treated with a series concentration of M1 and M2 for 24 h.
Tested by Cell Counting Kit-8 (Beyotime, C0039) The mean of results of six parallel experiments isshown and data were
expressed as mean ± SD (n=6).
(§1) (1 picture or pasted object on this page, not shown here)

[1] = mouse, in vivo, iv, 16 mg/kg
[2] = set-up: species or system mice; conditions: mouse, in vivo, iv, 16 mg/kg
From the text: The acute toxicity evaluation of M1 to mice were verified by blood biochemistry, hemograms, and histological analysis. The representative biomarkers of liver function included alanine aminotransferase (ALT), alkaline phosphatase (ALP), aspartate aminotransferase (AST), total protein (TP), and albumin concentration (ALB). […] In addition, the hematological assessment results including creatinine (CREA), white blood cells (WBC), red blood cells (RBC), hematocrit (HCT), mean corpuscular volume […], mean corpuscular hemoglobin […], mean corpuscular hemoglobin concentration (MCHC), red cell volume distribution width-coefficient of variation (RDW-CV), platelet (PLT)and mean platelet volume (MPV) were carried out (Fig. 8b). All the above indicators in PBS group and M1 group appeared normal, which was basically consistent with the normal range reported in the literature. Then the mice from PBS group and M1 group were sacrificed for the further histological section analysis of the significant organs. After Hematoxylin and Eosin (H&E) staining, the slices of heart, liver, spleen, lung, kidney, and pancreas were compared and evaluated (Fig. 8c).
Fig. 8 Acute toxicity evaluation. a Liver function indicators: alanine aminotransferase (ALT), alkaline phosphatase (ALP), aspartate aminotransferase (AST), total protein (TP) and albumin concentration (ALB). […] Staining: H&E; Injection dose of M1. (i.v. administration): 16 mg/kg; Administration time: 24 h. Scale bar 200 μm.
The female Balb/c nude mice (6–8 weeks, n = 3) were sacrificed for blood and major organs collection after treated with M1 at a dose of 16 mg/kg on the 24 h. The histology evaluation of major organs was performed by Google biotechnology (Wuhan) Co. LTD. The blood biochemistry and haematology analyses were carried out by Vital River Laboratory Animal Technology Co. Ltd.

[3] = system: orthotopic pancreatic tumor (MIA PaCa-2); test: Ex vivo organ biodistribution, orthotopic pancreatic tumor model; conditions: orthotopic tumor mice, i.v. 16 mg/kg, 12 h
Experimental: To evaluate the imaging property of BIVA probe, the orthotopic pancreatic tumor mice model was built. After intravenous injected M1 and M2 molecules with a dose of 16 mg/kg for 12 h, the mice were sacrificed. […] Then, all the important organs were dissected for ex vivo imaging. […] Upon the individual differences, we validated 6 mice under surgery to induce orthotopic tumor in pancreatic head. […] As known, the FAP-α was a membrane located protein, overexpressed on tumor associate fibroblast cell and pancreatic cell surface.

MIA PaCa-2 tumor = test: In vivo photoacoustic imaging; set-up: species or system mice; conditions: 12 h after i.v. injection, 16 mg/kg
Experimental: The MIA PaCa-2 tumor-bearing mice were constructed for in vivo photoacoustic imaging of M1. After intravenously injected with M1 (16 mg/kg) through tail vein, the PA images of mice were acquired with MOST (mode: MOST invision 128) at 12 h post injection.
Supplementary Fig. 22∣ 3D reconstruction PA images of tumor-bearing mice injected with M1 (16 mg/kg) through tail
vein.PA images of mice were acquired with MOST (mode: MOST 128) at 12 h post injection.
as §1

mPEG-GPAKLVFFGC(IR783)GRGD [M1]
cytotoxicity (MIA PaCa-2 cells): no obvious cytotoxicity | blood circulation half-life (t1/2) [1]: 1.83 ± 0.05 h | hematological assessment (CREA, WBC, RBC, HCT, MCV, MCH, MCHC, RDW-CV, PLT, MPV) [2]: normal | hepatic toxicity (ALT, ALP, AST, TP, ALB) [2]: no obvious hepatic toxicity | organ damage in H&E slices of heart, liver, spleen, lung, kidney, pancreas [2]: no noticeable organ damage and tissue injury | signal accumulation in tumor relative to M2 [3]: twice | Average radiant efficiency, spleen ([3]; average of n = 3): 203.333 P/sec | accumulation in tumor by photoacoustic imaging (MIA PaCa-2 tumor): more accumulation in tumor than that of M2
